Reference: PMC2756588

T1: Pin3, Q06449
T1 sequence (Q06449 53-122, looked up): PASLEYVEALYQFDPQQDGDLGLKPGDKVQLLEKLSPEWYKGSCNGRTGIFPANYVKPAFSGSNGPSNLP

T2: Lsb3, P43603
T2 sequence (P43603 385-451, looked up): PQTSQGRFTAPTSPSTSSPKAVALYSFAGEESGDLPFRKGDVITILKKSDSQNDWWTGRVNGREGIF

T3: Bzz1-1, P38822
T3 sequence (P38822 478-572, looked up): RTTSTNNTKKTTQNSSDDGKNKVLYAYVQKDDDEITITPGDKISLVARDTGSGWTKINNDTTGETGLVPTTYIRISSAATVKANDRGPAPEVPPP

T4: Pex13, P80667
T4 sequence (P80667 295-386, looked up): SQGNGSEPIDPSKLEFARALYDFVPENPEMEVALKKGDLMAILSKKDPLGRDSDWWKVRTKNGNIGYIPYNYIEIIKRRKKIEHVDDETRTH

T5: Sla1-3, P32790
T5 sequence (P32790 344-424, looked up): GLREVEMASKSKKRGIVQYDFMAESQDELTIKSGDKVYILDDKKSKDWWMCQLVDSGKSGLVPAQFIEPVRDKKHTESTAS

T6: Hse1, P38753
T6 sequence (P38753 208-285, looked up): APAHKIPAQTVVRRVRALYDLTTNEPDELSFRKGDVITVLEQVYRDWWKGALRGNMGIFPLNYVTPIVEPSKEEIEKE

T7: Boi2, P39969
T7 sequence (P39969 32-116, looked up): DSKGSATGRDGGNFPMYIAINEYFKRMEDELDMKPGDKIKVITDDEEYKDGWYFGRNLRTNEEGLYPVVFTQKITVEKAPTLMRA

T8: Myo5, Q04439
T8 sequence (Q04439 1072-1160, looked up): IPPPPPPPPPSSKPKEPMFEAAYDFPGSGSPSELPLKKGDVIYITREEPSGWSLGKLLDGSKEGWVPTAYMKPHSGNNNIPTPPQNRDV

T9: Cdc25, P04821
T9 sequence (P04821 50-136, looked up): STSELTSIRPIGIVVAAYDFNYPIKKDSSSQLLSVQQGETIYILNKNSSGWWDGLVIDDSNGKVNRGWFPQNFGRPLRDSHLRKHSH

T10: Hof1, Q05080
T10 sequence (Q05080 590-669, looked up): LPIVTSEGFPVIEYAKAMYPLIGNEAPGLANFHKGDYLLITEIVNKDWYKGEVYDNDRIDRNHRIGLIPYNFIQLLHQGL

T11: Lsb1, P53281
T11 sequence (P53281 45-122, looked up): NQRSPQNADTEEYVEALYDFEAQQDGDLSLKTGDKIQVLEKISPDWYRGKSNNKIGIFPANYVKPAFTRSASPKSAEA

T12: Bbc1, P47068
T12 sequence (P47068 1-78, looked up): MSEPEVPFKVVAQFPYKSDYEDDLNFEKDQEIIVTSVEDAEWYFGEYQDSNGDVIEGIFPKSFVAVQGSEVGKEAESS

T13: Boi1, P38041
T13 sequence (P38041 1-86, looked up): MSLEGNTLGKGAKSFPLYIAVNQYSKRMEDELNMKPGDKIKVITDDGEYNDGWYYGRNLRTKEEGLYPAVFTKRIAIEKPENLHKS

T14: Nbp2, Q12163
T14 sequence (Q12163 103-180, looked up): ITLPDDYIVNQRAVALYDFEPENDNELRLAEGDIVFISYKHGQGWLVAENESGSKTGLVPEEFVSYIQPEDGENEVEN

T15: Abp1, P15891
T15 sequence (P15891 535-592, looked up): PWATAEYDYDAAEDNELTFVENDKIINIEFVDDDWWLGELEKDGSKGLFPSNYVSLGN

T16: Bud14, P27637
T16 sequence (P27637 247-328, looked up): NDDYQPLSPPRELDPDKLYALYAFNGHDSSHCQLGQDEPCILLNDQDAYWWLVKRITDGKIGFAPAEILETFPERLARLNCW

T17: Cyk3, Q07533
T17 sequence (Q07533 1-83, looked up): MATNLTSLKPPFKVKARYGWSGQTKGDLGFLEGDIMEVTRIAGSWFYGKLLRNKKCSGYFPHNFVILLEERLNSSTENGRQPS

T18: Lsb4, P32793
T18 sequence (P32793 402-468, looked up): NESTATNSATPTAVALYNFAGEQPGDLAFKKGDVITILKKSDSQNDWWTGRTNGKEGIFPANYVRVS

T19: Sla1-2, P32790
T19 sequence (P32790 60-140, looked up): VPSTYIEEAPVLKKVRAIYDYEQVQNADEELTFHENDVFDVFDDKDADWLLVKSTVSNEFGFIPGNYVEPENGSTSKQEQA

T20: Fus1, P11710
T20 sequence (P11710 432-512, looked up): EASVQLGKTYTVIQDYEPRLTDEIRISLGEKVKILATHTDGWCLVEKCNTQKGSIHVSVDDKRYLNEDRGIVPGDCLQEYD

T21: Bzz1-2, P38822
T21 sequence (P38822 568-633, looked up): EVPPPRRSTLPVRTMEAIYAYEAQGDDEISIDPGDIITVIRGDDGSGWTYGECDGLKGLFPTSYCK


Experiments:
Assay in all cases: SPOT array
Pin3, Q06449 = target: T1, Pin3, Q06449; conditions: median of control spots 2171
Lsb3, P43603 = target: T2, Lsb3, P43603; conditions: median of control spots 406
Bzz1-1, P38822 = target: T3, Bzz1-1, P38822; conditions: median of control spots 4446
Pex13, P80667 = target: T4, Pex13, P80667; conditions: median of control spots 1341
Sla1-3, P32790 = target: T5, Sla1-3, P32790; conditions: median of control spots 5475
Hse1, P38753 = target: T6, Hse1, P38753; conditions: median of control spots 1727
Boi2, P39969 = target: T7, Boi2, P39969; conditions: median of control spots 1161
Myo5, Q04439 = target: T8, Myo5, Q04439; conditions: median of control spots 471
Cdc25, P04821 = target: T9, Cdc25, P04821; conditions: median of control spots 969
GST = conditions: median of control spots 978
Bem1-2, P29366 = conditions: median of control spots 4347
Bem1-2, P29366, sequence (P29366 139-227): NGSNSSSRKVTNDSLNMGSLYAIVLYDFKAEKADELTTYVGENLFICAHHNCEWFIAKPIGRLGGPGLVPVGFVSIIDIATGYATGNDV

Hof1, Q05080 = target: T10, Hof1, Q05080; conditions: median of control spots 4086
Sho1, P40073 = conditions: median of control spots 1148
Sho1, P40073, sequence (P40073 287-367): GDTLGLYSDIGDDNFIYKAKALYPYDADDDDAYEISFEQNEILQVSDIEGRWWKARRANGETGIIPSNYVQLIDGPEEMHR

Rvs167, P39743 = conditions: median of control spots 2707
Rvs167, P39743, sequence (P39743 419-482): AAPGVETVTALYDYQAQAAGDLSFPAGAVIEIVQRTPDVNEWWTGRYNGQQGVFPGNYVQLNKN

Lsb1, P53281 = target: T11, Lsb1, P53281; conditions: median of control spots 388
Bbc1, P47068 = target: T12, Bbc1, P47068; conditions: median of control spots 796
Boi1, P38041 = target: T13, Boi1, P38041; conditions: median of control spots 1162
Myo3, P36006 = conditions: median of control spots 468
Nbp2, Q12163 = target: T14, Nbp2, Q12163; conditions: median of control spots 357
Abp1, P15891 = target: T15, Abp1, P15891; conditions: median of control spots 935
Bud14, P27637 = target: T16, Bud14, P27637; conditions: median of control spots 956
Cyk3, Q07533 = target: T17, Cyk3, Q07533; conditions: median of control spots 1451
Lsb4, P32793 = target: T18, Lsb4, P32793; conditions: median of control spots 397
Sla1-2, P32790 = target: T19, Sla1-2, P32790; conditions: median of control spots 712
Fus1, P11710 = target: T20, Fus1, P11710; conditions: median of control spots 1200
Bzz1-2, P38822 = target: T21, Bzz1-2, P38822; conditions: median of control spots 4538
Bem1-1, P29366 = conditions: median of control spots 4282
Bem1-1, P29366, sequence (P29366 55-141): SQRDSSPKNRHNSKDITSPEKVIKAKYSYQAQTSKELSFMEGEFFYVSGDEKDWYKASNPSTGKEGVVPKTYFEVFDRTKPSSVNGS

Binder	SPOT intensity (Pin3, Q06449)	SPOT intensity (Lsb3, P43603)	SPOT intensity (Bzz1-1, P38822)	SPOT intensity (Pex13, P80667)	SPOT intensity (Sla1-3, P32790)	SPOT intensity (Hse1, P38753)	SPOT intensity (Boi2, P39969)	SPOT intensity (Myo5, Q04439)	SPOT intensity (Cdc25, P04821)	SPOT intensity (GST)	SPOT intensity (Bem1-2, P29366)	SPOT intensity (Hof1, Q05080)	SPOT intensity (Sho1, P40073)	SPOT intensity (Rvs167, P39743)	SPOT intensity (Lsb1, P53281)	SPOT intensity (Bbc1, P47068)	SPOT intensity (Boi1, P38041)	SPOT intensity (Myo3, P36006)	SPOT intensity (Nbp2, Q12163)	SPOT intensity (Abp1, P15891)	further results
NNQRRKPLLLNIGDH	0	0	0	0	138	50	1	0	216	0	25	18	79	0	0	11	5	0	42	56	SPOT intensity (Bud14, P27637): 17; SPOT intensity (Cyk3, Q07533): 1; SPOT intensity (Lsb4, P32793): 0; SPOT intensity (Sla1-2, P32790): 0; SPOT intensity (Fus1, P11710): 28; SPOT intensity (Bzz1-2, P38822): 5; SPOT intensity (Bem1-1, P29366): 0
ALFRLSFFFPLDPAY	39	16	0	93	54	116	17	17	359	1	27	33	168	8	49	218	192	44	283	142	SPOT intensity (Bud14, P27637): 12; SPOT intensity (Cyk3, Q07533): 13; SPOT intensity (Lsb4, P32793): 21; SPOT intensity (Sla1-2, P32790): 4; SPOT intensity (Fus1, P11710): 628; SPOT intensity (Bzz1-2, P38822): 31; SPOT intensity (Bem1-1, P29366): 0
NFLRLLIGLPSQNEL	15	0	2	47	0	10	6	0	354	0	0	3	93	0	2	156	122	10	84	55	SPOT intensity (Bud14, P27637): 22; SPOT intensity (Cyk3, Q07533): 9; SPOT intensity (Lsb4, P32793): 0; SPOT intensity (Sla1-2, P32790): 0; SPOT intensity (Fus1, P11710): 243; SPOT intensity (Bzz1-2, P38822): 0; SPOT intensity (Bem1-1, P29366): 1
NPNRRAPRRPLSTQH	4	2	0	27	607	113	0	0	221	0	476	70	267	0	52	294	28	46	626	151	SPOT intensity (Bud14, P27637): 17; SPOT intensity (Cyk3, Q07533): 3; SPOT intensity (Lsb4, P32793): 18; SPOT intensity (Sla1-2, P32790): 4; SPOT intensity (Fus1, P11710): 59; SPOT intensity (Bzz1-2, P38822): 56; SPOT intensity (Bem1-1, P29366): 3
PLRRTVMSLPGNHDI	72	0	1	31	0	1	0	12	16	0	6	0	12	0	75	0	0	23	18	24	SPOT intensity (Bud14, P27637): 2; SPOT intensity (Cyk3, Q07533): 0; SPOT intensity (Lsb4, P32793): 0; SPOT intensity (Sla1-2, P32790): 3; SPOT intensity (Fus1, P11710): 1; SPOT intensity (Bzz1-2, P38822): 1; SPOT intensity (Bem1-1, P29366): 1
NHSRSLFSLPGNQQS	16	0	2	36	124	114	2	1	333	2	353	364	141	0	46	35	7	13	77	53	SPOT intensity (Bud14, P27637): 7; SPOT intensity (Cyk3, Q07533): 0; SPOT intensity (Lsb4, P32793): 0; SPOT intensity (Sla1-2, P32790): 1; SPOT intensity (Fus1, P11710): 653; SPOT intensity (Bzz1-2, P38822): 19; SPOT intensity (Bem1-1, P29366): 3
